Target: T1, GST-FOXL2-FHD (UniProt O88470 48-144)
T1 sequence: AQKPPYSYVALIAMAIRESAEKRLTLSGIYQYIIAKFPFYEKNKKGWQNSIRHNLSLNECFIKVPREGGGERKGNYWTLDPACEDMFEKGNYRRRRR
Assay: EMSA

B1: Enh 3 wt (SBE/FBE1&2) (dsDNA)
DNA 1: GCCTTGATGTGTCTGGCTCAGAGCTGGCTAGAAGGCCAAGGCTATATGC
DNA 2: GCATATAGCCTTGGCCTTCTAGCCAGCTCTGAGCCAGACACATCAAGGC
B1: no binding.
